Results reported in patent US20230212319A1, “NOVEL ANTIGEN BINDING DOMAINS AND SYNTHETIC ANTIGEN RECEPTORS INCORPORATING THE SAME” (University of Southern California, priority 2020, published 2023).

B1: 22055 (protein)
chain: MALPVTALLLPLALLLHAARPQLQLQESGPGLVKPSETLSLTCTVSGDSISSGDYYWGWIRQPPGKGLEWIGHIYYSGVTYYNPSLKSRVTISVDTSRNQFSLKLSSVTAADTAVYYCTREDSSNWRSRGQGTLVTVSSLEGSEVKTDSTDHVKPKETENTKQPSKSCHKPKAIVHTEKVNMMSLTVLGLRMLFAKTVAVNFLLTAKLFFLRAKRSGSGVKQTLNFDLLKLAGDVESNPGPTSMDWIWRILFLVGAATGAHSFEVQLVESGGGVVQPGRSLRLSCAASGFSFSGYGMHWVRQAPGKGLEWVAYISYDGSNKYYADSVKGRFTISRDNSKNTLYLQMNSLRAEDTAVYYCAKDPAWGLRLGESSSYDFDIWGQGTMVTVSSTRGSGRADCGFTSESYQQGVLSATILYEILLGKATLYAVLVSALVLMAMVKRKDSRGRAKRSGSGATNFSLLKQAGDVEENPGPSRGHMTEYKPTVRLATRDDVPRAVRTLAAAFADYPATRHTVDPDRHIERVTELQELFLTRVGLDIGKVWVADDGAAVAVWTTPESVEAGAVFAEIGPRMAELSGSRLAAQQQMEGLLAPHRPKEPAWFLATVGVSPDHQGKGLGSAVVLPGVEAAERAGVPAFLETSAPRNLPFYERLGFTVTADVEVPEGPRTWCMTRKPGA
B2: SEQ ID NO: 22288: SAR with adaptor binding domain (Table 48) (protein)
chain: MALPVTALLLPLALLLHAARPACLFNQEVQIPLTESYCGPCPKNWICYKNNCYQFFDESKNWYESQASCMSQNASLLKVYSKEDQDLLKLVKSAHWMGLVHIPTNGSWQWEDGSILSPNLLTIIEMQKGDCALYASSFKGYIENCSTPNTYICMQRTVLEGQPKANPTVTLFPPSSEELQANKATLVCLISDFYPGAVTVAWKADGSPVKAGVETTKPSKQSNNKYAASSYLSLTPEQWKSHRSYSCQVTHEGSTVEKTVAPTECSPIKTDVITMDPKDNCSKDANDTLLLQLTNTSAYYMYLLLLLKSVVYFAIITCCLLRRTAFCCNGEKSRAKRSGSGATNFSLLKQAGDVEENPGPTSATMDWIWRILFLVGAATGAHSGPQVQLQESGGGLAQAGGSLRLSCAASGRTFSMGWFRQAPGKEREFVAAITYSGGSPYYASSVRGRFTISRDNAKNTVYLQMNSLKPEDTAVYYCAANPTYGSDWNAENWGQGTQVTVSSGSGGGGSGGGGSGGGGSFEDLFNQEVQIPLTESYCGPCPKNWICYKNNCYQFFDESKNWYESQASCMSQNASLLKVYSKEDQDLLKLVKSAHWMGLVHIPTNGSWQWEDGSILSPNLLTIIEMQKGDCALYASSFKGFIENCSTPNTYICMQRTVTRASTKGPSVFPLAPSSKSTSGGTAALGCLVKDYFPEPVTVSWNSGALTSGVHTFPAVLQSSGLYSLSSVVTVPSSSLGTQTYICNVNHKPSNTKVDKRVEPKSCEVKTDSTDHVKPKETENTKQPSKSCHKPKAIVHTEKVNMMSLTVLGLRMLFAKTVAVNFLLTAKLFFLRAKRSGSGVKQTLNFDLLKLAGDVESNPGPSRGHMTEYKPTVRLATRDDVPRAVRTLAAAFADYPATRHTVDPDRHIERVTELQELFLTRVGLDIGKVWVADDGAAVAVWTTPESVEAGAVFAEIGPRMAELSGSRLAAQQQMEGLLAPHRPKEPAWFLATVGVSPDHQGKGLGSAVVLPGVEAAERAGVPAFLETSAPRNLPFYERLGFTVTADVEVPEGPRTWCMTRKPGA
B3: 22057 (protein)
chain: MALPVTALLLPLALLLHAARPQLQLQESGPGLVKPSETLSLTCTVSGDSISSGDYYWGWIRQPPGKGLEWIGHIYYSGVTYYNPSLKSRVTISVDTSRNQFSLKLSSVTAADTAVYYCTREDSSNWRSRGQGTLVTVSSLEGSEVKTDSTDHVKPKETENTKQPSKSCHKPKAIVHTEKVNMMSLTVLGLRMLFAKTVAVNFLLTAKLFFLRAKRSGSGVKQTLNFDLLKLAGDVESNPGPTSMDWIWRILFLVGAATGAHSFEVQLVESGGGVVQPGRSLRLSCAASGFSFSGYGMHWVRQAPGKGLEWVAYISYDGSNKYYADSVKGRFTISRDNSKNTLYLQMNSLRAEDTAVYYCAKDPAWGLRLGESSSYDFDIWGQGTMVTVSSTRDKTHTCPPCPAGRADCGFTSESYQQGVLSATILYEILLGKATLYAVLVSALVLMAMVKRKDFRAKRSGSGATNFSLLKQAGDVEENPGPSRGHMTEYKPTVRLATRDDVPRAVRTLAAAFADYPATRHTVDPDRHIERVTELQELFLTRVGLDIGKVWVADDGAAVAVWTTPESVEAGAVFAEIGPRMAELSGSRLAAQQQMEGLLAPHRPKEPAWFLATVGVSPDHQGKGLGSAVVLPGVEAAERAGVPAFLETSAPRNLPFYERLGFTVTADVEVPEGPRTWCMTRKPGA
B4: 22043 (protein)
chain: MALPVTALLLPLALLLHAARPQLQLQESGPGLVKPSETLSLTCTVSGDSISSGDYYWGWIRQPPGKGLEWIGHIYYSGVTYYNPSLKSRVTISVDTSRNQFSLKLSSVTAADTAVYYCTREDSSNWRSRGQGTLVTVSSLEDKTHTCPPCPAPIKTDVITMDPKDNCSKDANDTLLLQLTNTSAYYMYLLLLLKSVVYFAIITCCLLRRTAFCCNGEKSRAKRSGSGATNFSLLKQAGDVEENPGPTSMDWIWRILFLVGAATGAHSFEVQLVESGGGVVQPGRSLRLSCAASGFSFSGYGMHWVRQAPGKGLEWVAYISYDGSNKYYADSVKGRFTISRDNSKNTLYLQMNSLRAEDTAVYYCAKDPAWGLRLGESSSYDFDIWGQGTMVTVSSTRDKTHTCPPCPAIPEDTFFPSPESSCDVKLVEKSFETDTNLNFQNLSVIGFRILLLKVAGFNLLMTLRLWSSRAKRSGSGVKQTLNFDLLKLAGDVESNPGPSRGHMTEYKPTVRLATRDDVPRAVRTLAAAFADYPATRHTVDPDRHIERVTELQELFLTRVGLDIGKVWVADDGAAVAVWTTPESVEAGAVFAEIGPRMAELSGSRLAAQQQMEGLLAPHRPKEPAWFLATVGVSPDHQGKGLGSAVVLPGVEAAERAGVPAFLETSAPRNLPFYERLGFTVTADVEVPEGPRTWCMTRKPGA

Assays:
LNCaP cells = assay: JNG assay, co-culture with LNCaP cells; assay type: cell-based; conditions: for NFAT-GFP ASSAY: LNCaP: co-culture with LNCaP
Experimental: Cellular supernatant is collected and assayed for the induction of cytokines (e.g., IL2).
JNG (Jurkat cells expressing EGFP under an NFAT promoter) were infected with lentiviral vectors encoding different single chain and multi-chain SARs by spinfection in the presence of 8 µg/ml of Polybrene® (Sigma, Catalog no. H9268). The Jurkat-NFAT-GFP cells are engineered in such a way that the IL-2 promoter, which carries NFAT binding sites, is cloned upstream of the GFP gene. These cells have been used to study signaling via TCR and CAR. The different SARs were stably expressed in Jurkat NFAT-GFP cells by lentiviral mediated gene transfer, followed by selection with puromycin or blasticidin. No drug selection was used in case the construct lacked an antibiotic resistance gene. The SAR-expressing Jurkat-NFAT-GFP cells were cocultured with the target cells at E:T ratio of approximately 1:2 for approximately 4 hours to 18 hours. When the interaction between SIRs and their target antigen results in activation of the NFAT pathway, GFP expression is induced. […] GFP expression was monitored by FACS analysis. The Jurkat-NFAT-GFP (parental) cells were used as control. The structure of different constructs can be determined based on their names. For example, the construct CD8SP-CD19-hu-mROO5-1-vL-[hTCRa-C SDVP]-F-F2A-Spe-IgHSP-Apa-CD20-vHH-2HCD25-G4S-CDl9-hu-mROO5-1-vH-Mlu-[hTCRb-KACIAH]-F-P2A-PAC has the following modules from 5′ to 3′ direction: a CD8 signal peptide (CD8SP), the CD19 targeting hu-mROO5-1 vL fragment (CD19-hu-mROO5-1), Xho1 cloning site, human TCRa constant chain containing CSDVP mutations (hTCRa-CSDVP), Furine cleavage site (F), F2A ribosomal skip sequence (F2A), SpeI site, human IgH signal peptide (IgHSP), Apa I restriction enzyme site, camelid CD20-2HCD25-VHH module targeting CD20, BamHI restriction enzyme site, Glycinex4-serine linker (G4S), BstI restriction enzyme site, CD19-hu-mROO5-1-vH fragment targeting CD19, Mlu I restriction enzyme site, human TCRb constant chain containing KACIAH mutations ([hTCRb-KACIAH]), Furine cleavage site (F), P2A ribosomal skip sequence and Puromycin resistance gene (PAC). The sequence of the other constructs in the table can be similarly determined from their names and by referring to the different Tables of this disclosure that provide the names and SEQ ID NO of the different modules. Alternatively, the composition and modular architecture of the different SAR constructs can be determined from their sequences by bioinformatics tools, including using nucleic acid and amino acids homology searches. A SAR is considered positive in the assay in case the SAR expressing Jurkat-NFAT-GFP cells show greater % GFP positive cells when cultured with the target cell line as compared to parental Jurkat-NFAT-GFP cells. The signs +/-, +, 2+ etc. after the name of the cell lines indicate the relative degree of positivity on the Jurkat-NFAT-GFP assay as measured by the % GFP positive cells after culture of the SAR expressing Jurkat-NFAT-GFP cells with that cell line above the % GFP cells observed in parental Jurkat NFAT-GFP cells serving as controls. In general, the number +/-, +, 2+, 3+, 4+, 5+ refer to approximately 5%, 10%, 20%, 30%, 40% and 50% GFP positive cells. The % of GFP induction in the above assay is dependent not only the relative strength of the SAR but also, among other factors, on the relative level of expression of the SAR in the JNG cells and the relative level of expression of the target antigen in the target cell line. To control for the difference in gene transduction efficiency of the different SAR constructs, the experiment was conducted with JNG cells transduced with SAR constructs co-expressing a drug resistance gene (e.g., puromycin or PAC) followed by drug selection to generate a stable population of SAR-expressing cells. […]

RAJI cells = assay: JNG assay, co-culture with RAJI cells; assay type: cell-based; conditions: for NFAT-GFP ASSAY: Raji: JNG cells expressing construct, co-culture with Raji
Outline: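 Read-out is NFAT-driven GFP measured by flow cytometry after ~4–18 h co-culture of SAR-expressing JNG cells with target cells (E:T about 1:2). SARs were introduced by lentiviral spinfection and selected with puromycin or blasticidin when possible; scores (+/- to 5+ ≈ 5–50% GFP+) are relative to parental JNG cells.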

Row | Molecule | NFAT-GFP ASSAY: LNCaP (LNCaP cells) | NFAT-GFP ASSAY: Raji (RAJI cells) | GFP induction (LNCaP cells; LNCaP cells, only in the presence of SAR-adaptor PSMA-USC76-chVH-G4S-ULBP2-S3 (SEQ ID NO: 23114)) | GFP induction / activity (RAJI cells; co-culture with RAJI cells)
1 | B1 | + (refer to approximately 5%, 10%, 20%, 30%, 40% and 50% GFP positive cells) | +/- (refer to approximately 5%, 10%, 20%, 30%, 40% and 50% GFP positive cells) |  | 
2 | B2 |  |  | Essentially similar results | Essentially similar results
3 | B3 | + (refer to approximately 5%, 10%, 20%, 30%, 40% and 50% GFP positive cells) | +/- (refer to approximately 5%, 10%, 20%, 30%, 40% and 50% GFP positive cells) |  | 
4 | B4 | + (refer to approximately 5%, 10%, 20%, 30%, 40% and 50% GFP positive cells) | +/- (refer to approximately 5%, 10%, 20%, 30%, 40% and 50% GFP positive cells) |  | 
